Assays:
human L-selectin (human) = human L-selectin (human) (UniProt P14151); experiment: cell-based or functional assay
CD34 (human) = CD34 (human) (UniProt P28906); experiment: cell-based or functional assay
UniProt P28906, sequence (P28906 32-385): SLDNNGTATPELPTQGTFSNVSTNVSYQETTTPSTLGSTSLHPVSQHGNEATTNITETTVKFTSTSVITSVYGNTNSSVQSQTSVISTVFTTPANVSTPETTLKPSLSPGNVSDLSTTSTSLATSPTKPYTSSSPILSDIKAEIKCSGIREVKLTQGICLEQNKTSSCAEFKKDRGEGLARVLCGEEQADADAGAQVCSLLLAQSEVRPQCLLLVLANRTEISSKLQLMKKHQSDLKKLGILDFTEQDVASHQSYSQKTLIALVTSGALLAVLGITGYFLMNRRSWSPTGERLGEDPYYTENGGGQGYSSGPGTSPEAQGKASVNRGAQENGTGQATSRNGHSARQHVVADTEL

| Substance | reduction of the L-selectin enhanced amount of CD34+ transduction (human L-selectin (human)) [%] | transduction of cytokine-stimulated CD34+ cells (% eGFP+ cells) (CD34 (human)) [fold] |
| --- | --- | --- |
| anti-human L-selectin antibody (clone DREG56; Thermo Fisher) | 79 | – |
| human L-selectin (from UniProt P14151 39-372) (ligand) | – | 2 |
